Reference: publication PMC2884976 (The Journal of General Virology, 2007)

B1: GST–M1 N+M domain fusion protein (domain or fragment)
chain: MSLLTEVETYVLSIIPSGPLKAEIAQRLEDVFAGKNTDLEVLMEWLKTRPILSPLTKGILGFVFTLTVPSERGLQRRRFVQNALNGNGDPNNMDKAVKLYRKLKREITFHGAKEISLSYSAGALASCMGLIYNRMGAVTTEVAFGLVCATCEQIADSQHRSHRQM
notes: not shown: GST, N-terminal, kept
B2: GST–M1 M+C domain fusion protein (domain or fragment)
chain: GDPNNMDKAVKLYRKLKREITFHGAKEISLSYSAGALASCMGLIYNRMGAVTTEVAFGLVCATCEQIADSQHRSHRQMVTTTNPLIRHENRMVLASTTAKAMEQMAGSSEQAAEAMEVASQARQMVQAMRTIGTHPSSSAGLKNDLLENLQAYQKRMGVQMQRFK
notes: as for B1
B3: GST–M1 middle domain fusion protein (domain or fragment)
chain: GDPNNMDKAVKLYRKLKREITFHGAKEISLSYSAGALASCMGLIYNRMGAVTTEVAFGLVCATCEQIADSQHRSHRQM
notes: as for B1
B4: untagged WT radiolabelled M1, in vitro translated (natural protein)
chain: MSLLTEVETYVLSIIPSGPLKAEIAQRLEDVFAGKNTDLEVLMEWLKTRPILSPLTKGILGFVFTLTVPSERGLQRRRFVQNALNGNGDPNNMDKAVKLYRKLKREITFHGAKEISLSYSAGALASCMGLIYNRMGAVTTEVAFGLVCATCEQIADSQHRSHRQMVTTTNPLIRHENRMVLASTTAKAMEQMAGSSEQAAEAMEVASQARQMVQAMRTIGTHPSSSAGLKNDLLENLQAYQKRMGVQMQRFK

Experiments:
Test in all cases: pull-down
[1] = molecular target: purified NP (influenza A virus A/PR/8/34 (PR8), UniProt P03466 1-498); conditions: both partners purified
[2] = molecular target: B3; conditions: one partner purified
[3] = molecular target: B2; conditions: one partner purified
[4] = molecular target: T1, GST–M1 C-terminal domain fusion protein (influenza A virus A/PR/8/34 (PR8), UniProt P03485 165-252); conditions: one partner purified
T1 construct: Cloned into pGEX-3X; not shown: GST, N-terminal, kept

purified NP, sequence (P03466 whole entry): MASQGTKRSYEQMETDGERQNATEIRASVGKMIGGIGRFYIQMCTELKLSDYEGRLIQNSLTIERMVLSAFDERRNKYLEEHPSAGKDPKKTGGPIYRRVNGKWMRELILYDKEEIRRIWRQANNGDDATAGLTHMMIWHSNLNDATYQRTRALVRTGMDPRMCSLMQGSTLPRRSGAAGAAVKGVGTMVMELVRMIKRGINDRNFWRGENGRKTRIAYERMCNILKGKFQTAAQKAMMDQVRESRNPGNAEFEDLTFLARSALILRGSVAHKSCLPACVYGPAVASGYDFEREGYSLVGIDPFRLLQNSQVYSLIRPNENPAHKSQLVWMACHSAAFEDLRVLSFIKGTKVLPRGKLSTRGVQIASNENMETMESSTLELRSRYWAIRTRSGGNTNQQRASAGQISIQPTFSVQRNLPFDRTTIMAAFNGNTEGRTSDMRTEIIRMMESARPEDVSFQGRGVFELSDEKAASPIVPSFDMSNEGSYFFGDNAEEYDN

Row | Binder | binding result [1] | binding activity relative to full-length GST–M1 [2] [fold] | binding activity relative to full-length GST–M1 [3] [fold] | binding activity relative to full-length GST–M1 [4] [%]
1 | B1 | binds | – | – | –
2 | B2 | binds | – | – | –
3 | B3 | binds | – | – | –
4 | B4 | – | 2 | 2 | ~40
